Data from article doi:10.1101/2025.01.15.633177 (bioRxiv, 2025).

Experiments:
[1] = target: T1, unphosphorylated Aurora-A 1-403 (UniProt O14965 1-403); test: pull-down
T1 sequence: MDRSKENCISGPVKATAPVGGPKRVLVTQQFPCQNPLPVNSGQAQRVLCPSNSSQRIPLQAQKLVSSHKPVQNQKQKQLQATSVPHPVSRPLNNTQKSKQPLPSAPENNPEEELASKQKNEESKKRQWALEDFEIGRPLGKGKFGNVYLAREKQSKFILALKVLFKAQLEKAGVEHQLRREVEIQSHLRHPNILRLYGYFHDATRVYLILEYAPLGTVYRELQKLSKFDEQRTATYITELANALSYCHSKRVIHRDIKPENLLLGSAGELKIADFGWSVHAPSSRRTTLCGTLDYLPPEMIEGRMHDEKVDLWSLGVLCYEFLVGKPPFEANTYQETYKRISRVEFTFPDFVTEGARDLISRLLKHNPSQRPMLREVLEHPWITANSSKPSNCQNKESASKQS

Aurora-A kinase domain = target: T2, Aurora-A kinase domain (UniProt O14965 122-403, C290A;K339C;C393A); test: EMSA
T2 sequence: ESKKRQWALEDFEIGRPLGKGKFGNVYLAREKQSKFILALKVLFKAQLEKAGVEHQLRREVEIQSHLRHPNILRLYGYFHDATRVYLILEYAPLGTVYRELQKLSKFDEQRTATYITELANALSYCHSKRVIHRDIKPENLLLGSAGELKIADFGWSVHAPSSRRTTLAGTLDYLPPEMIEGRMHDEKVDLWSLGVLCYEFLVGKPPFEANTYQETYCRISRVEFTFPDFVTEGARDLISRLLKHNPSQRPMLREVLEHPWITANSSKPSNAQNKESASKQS

[2] = target: T3, Aurora-A 1-403, unphosphorylated (UniProt O14965 1-403); test: pull-down
T3 sequence: T1 sequence

B1: 3xFLAG-MYCN 1-137 (domain or fragment)
chain: MPSCSTSTMPGMICKNPDLEFDSLQPCFYPDEDDFYFGGPDSTPPGEDIWKKFELLPTPPLSPSRGFAEHSSEPPSWVTEMLLENELWGSPAEEDAFGLGGLGGLTPNPVILQDCMWSGFSAREKLERAVSEKLQHG
B1: binds [1].

B2: UGhigh RNA, Cy5 (ssRNA)
RNA: UGCUGGGAUGGUCAUGGUGGGUGACCCUGGGAUGGCCGCGGUGGGUGACCCUGGAAUGGU
B2: binds (Aurora-A kinase domain).

B3: UGhigh RNA, biotin (ssRNA)
RNA: B2 RNA
B3: binds [2].
